This note sets out measurements from publication PMC10397247.

For experiment [1], the target named is T1, 4H932-bN.
T1 chain: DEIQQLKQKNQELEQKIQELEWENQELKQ
Kind of experiment: two-hybrid library CCNG1.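 Note: natural log of median RNA to DNA barcode read ratio; higher means stronger binding.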

The target of experiment [2] is T2, 4H796-bN.
T2 chain: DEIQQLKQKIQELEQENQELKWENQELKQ
Briefly: two-hybrid library CCNG1.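 Note: natural log of median RNA to DNA barcode read ratio; higher means stronger binding.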

For experiment [3], the target named is T3, 4H949-bN.
T3 chain: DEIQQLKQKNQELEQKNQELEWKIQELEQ
Kind of experiment: two-hybrid library CCNG1.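 Note: natural log of median RNA to DNA barcode read ratio; higher means stronger binding.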

In experiment [4] the target is T4, 4H2760-bN.
T4 chain: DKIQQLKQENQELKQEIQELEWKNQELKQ
Briefly: two-hybrid library CCNG1.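 Note: natural log of median RNA to DNA barcode read ratio; higher means stronger binding.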

In experiment [5] the target is T5, 4H3297-bN.
T5 chain: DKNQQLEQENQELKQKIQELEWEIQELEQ
Briefly: two-hybrid library CCNG1.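 Note: natural log of median RNA to DNA barcode read ratio; higher means stronger binding.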

For experiment [6], the target named is T6, 4H3364-bN.
T6 chain: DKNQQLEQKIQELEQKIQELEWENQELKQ
Briefly: two-hybrid library CCNG1.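 Note: natural log of median RNA to DNA barcode read ratio; higher means stronger binding.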

Experiment [7] deals with T7, 4H56-bN.
T7 chain: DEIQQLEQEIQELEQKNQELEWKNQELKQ
Briefly: two-hybrid library CCNG1.

Experiment [8] addresses T8, 4H3041-bN.
T8 chain: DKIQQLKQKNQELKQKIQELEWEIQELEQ
Kind of experiment: two-hybrid library CCNG1.

The target in experiment [9] is T9, 4H349-bN.
T9 chain: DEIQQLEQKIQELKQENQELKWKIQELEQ
Kind of experiment: two-hybrid library CCNG1.

Experiment [10] concerns the target T10, 4H2859-bN.
T10 chain: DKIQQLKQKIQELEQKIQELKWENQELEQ
Briefly: two-hybrid library CCNG1.

Experiment [11] addresses T11, 4H3381-bN.
T11 chain: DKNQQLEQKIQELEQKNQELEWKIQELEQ
Briefly: two-hybrid library CCNG1.

In experiment [12] the target is T12, 4H730-bN.
T12 chain: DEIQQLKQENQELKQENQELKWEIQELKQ
Kind of experiment: two-hybrid library CCNG1.

Experiment [13] has as its target T13, 4H2931-bN.
T13 chain: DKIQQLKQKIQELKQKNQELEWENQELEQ
Kind of experiment: two-hybrid library CCNG1.

Experiment [14] concerns the target T14, 4H918-bH.
T14 chain: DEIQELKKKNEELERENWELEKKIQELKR
Kind of experiment: two-hybrid library CCNG1.

For experiment [15], the target named is T15, 4H967-bH.
T15 chain: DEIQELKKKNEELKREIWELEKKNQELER
Briefly: two-hybrid library CCNG1.

Experiment [16] has as its target T16, 4H717-bH.
T16 chain: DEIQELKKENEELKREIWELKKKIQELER
Briefly: two-hybrid library CCNG1.

For experiment [17], the target named is T17, 4H462-bH.
T17 chain: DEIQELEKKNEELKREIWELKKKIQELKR
Briefly: two-hybrid library CCNG1.

In experiment [18] the target is T18, 4H454-bH.
T18 chain: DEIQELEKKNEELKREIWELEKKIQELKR
Kind of experiment: two-hybrid library CCNG1.

In experiment [19] the target is T19, 4H3354-bH.
T19 chain: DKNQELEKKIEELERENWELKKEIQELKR
Kind of experiment: two-hybrid library CCNG1.

For experiment [20], the target named is T20, 4H72-bH.
T20 chain: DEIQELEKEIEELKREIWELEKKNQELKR
Briefly: two-hybrid library CCNG1.

Experiment [21] addresses T21, 4H568-bH.
T21 chain: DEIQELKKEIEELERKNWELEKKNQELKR
Kind of experiment: two-hybrid library CCNG1.

Experiment [22] deals with T22, 4H3855-bH.
T22 chain: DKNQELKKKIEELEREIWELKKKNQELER
Kind of experiment: two-hybrid library CCNG1.

Experiment [23] deals with T23, 4H754-bH.
T23 chain: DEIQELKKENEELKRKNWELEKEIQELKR
Briefly: two-hybrid library CCNG1.

The target of experiment [24] is T24, 4H797-bH.
T24 chain: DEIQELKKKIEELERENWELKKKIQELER
Kind of experiment: two-hybrid library CCNG1.

The target of experiment [25] is T25, 4H370-bH.
T25 chain: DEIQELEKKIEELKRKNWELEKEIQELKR
Briefly: two-hybrid library CCNG1.

For experiment [26], the target named is T26, 4H3427-bH.
T26 chain: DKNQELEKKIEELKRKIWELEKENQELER
Briefly: two-hybrid library CCNG1.

The target in experiment [27] is T27, 4H607-bH.
T27 chain: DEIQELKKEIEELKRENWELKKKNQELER
Briefly: two-hybrid library CCNG1.

Experiment [28] addresses T28, 4H3843-bH.
T28 chain: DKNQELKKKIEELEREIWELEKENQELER
Briefly: two-hybrid library CCNG1.

The target of experiment [29] is T29, 4H3606-bH.
T29 chain: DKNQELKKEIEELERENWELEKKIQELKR
Briefly: two-hybrid library CCNG1.

The target in experiment [30] is T30, 4H3782-bH.
T30 chain: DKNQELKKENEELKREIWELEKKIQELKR
Kind of experiment: two-hybrid library CCNG1.

In experiment [31] the target is T31, 4H338-bH.
T31 chain: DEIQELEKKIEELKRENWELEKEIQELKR
Briefly: two-hybrid library CCNG1.

For experiment [32], the target named is T32, 4H883-bH.
T32 chain: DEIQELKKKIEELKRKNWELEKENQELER
Briefly: two-hybrid library CCNG1.

Experiment [33] deals with T33, 4H331-bH.
T33 chain: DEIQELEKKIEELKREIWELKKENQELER
Briefly: two-hybrid library CCNG1.

The target of experiment [34] is T34, 4H908-bH.
T34 chain: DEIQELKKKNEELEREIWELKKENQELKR
Briefly: two-hybrid library CCNG1.

Experiment [35] concerns the target T35, 4H953-bH.
T35 chain: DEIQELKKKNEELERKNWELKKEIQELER
Kind of experiment: two-hybrid library CCNG1.

Experiment [36] deals with T36, 4H4001-bH.
T36 chain: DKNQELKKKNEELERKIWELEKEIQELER
Briefly: two-hybrid library CCNG1.

Experiment [37] concerns the target T37, 4H754-bN.
T37 chain: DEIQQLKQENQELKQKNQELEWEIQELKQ
Briefly: two-hybrid library CCNG1.

Experiment [38] addresses T38, 4H687-bH.
T38 chain: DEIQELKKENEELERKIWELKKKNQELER
Kind of experiment: two-hybrid library CCNG1.

For experiment [39], the target named is T39, O9-bA.
T39 chain: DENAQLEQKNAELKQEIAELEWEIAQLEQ
Kind of experiment: two-hybrid library CCNG1.

Experiment [40] has as its target T40, O8-bA.
T40 chain: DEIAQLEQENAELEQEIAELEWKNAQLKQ
Briefly: two-hybrid library CCNG1.

For experiment [41], the target named is T41, O6-bA.
T41 chain: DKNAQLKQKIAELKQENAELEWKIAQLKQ
Briefly: two-hybrid library CCNG1.

The target of experiment [42] is T42, O5-bA.
T42 chain: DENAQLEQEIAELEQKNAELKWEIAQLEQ
Briefly: two-hybrid library CCNG1.

Experiment [43] has as its target T43, O4-bA.
T43 chain: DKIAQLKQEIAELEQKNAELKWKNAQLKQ
Kind of experiment: two-hybrid library CCNG1.

The target of experiment [44] is T44, O7-bA.
T44 chain: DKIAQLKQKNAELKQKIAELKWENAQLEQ
Kind of experiment: two-hybrid library CCNG1.

Experiment [45] has as its target T45, 4H3782-AA.
T45 chain: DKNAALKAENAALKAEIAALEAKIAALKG
Kind of experiment: two-hybrid library CCmax. The conditions noted are these: mean of both orientations.

In experiment [46] the target is T46, 4H465-AA.
T46 chain: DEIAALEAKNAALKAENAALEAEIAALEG
Briefly: two-hybrid library CCmax. As to conditions: mean of both orientations.

In experiment [47] the target is T47, 4H486-AA.
T47 chain: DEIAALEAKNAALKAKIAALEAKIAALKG
Kind of experiment: two-hybrid library CCmax. As to conditions: mean of both orientations.

The target of experiment [48] is T48, 4H535-AA.
T48 chain: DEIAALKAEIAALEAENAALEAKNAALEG
Kind of experiment: two-hybrid library CCmax.

The target of experiment [49] is T49, 4H3651-AA.
T49 chain: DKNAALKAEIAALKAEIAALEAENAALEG
Briefly: two-hybrid library CCmax. As to conditions: mean of both orientations.

Experiment [50] has as its target T50, 4H_APH.
T50 chain: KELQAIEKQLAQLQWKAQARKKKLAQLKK
Briefly: two-hybrid library CCmax.

Experiment [51] addresses 4H_GCN4. Kind of experiment: two-hybrid library CCmax.
The target of experiment [52] is T51, 4H3705-AA.
T51 chain: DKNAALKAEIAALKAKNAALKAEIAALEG
Briefly: two-hybrid library CCmax. The conditions noted are these: mean of both orientations.

Experiment [53] concerns the target T52, P2-AA-12HAA-R.
T52 chain: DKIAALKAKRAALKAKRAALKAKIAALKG
Briefly: two-hybrid library CCmax.

The target of experiment [54] is T53, 4H58-AA.
T53 chain: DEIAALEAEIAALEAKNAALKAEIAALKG
Kind of experiment: two-hybrid library CCmax. The conditions noted are these: mean of both orientations.

Experiment [55] addresses T54, 4H_BCR.
T54 chain: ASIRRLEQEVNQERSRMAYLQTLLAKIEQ
Kind of experiment: two-hybrid library CCmax. As to conditions: mean of both orientations.

The target of experiment [56] is T55, 4H895-AA.
T55 chain: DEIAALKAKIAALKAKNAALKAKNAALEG
Kind of experiment: two-hybrid library CCmax. As to conditions: mean of both orientations.

Experiment [57] has as its target GCN2_T. Briefly: two-hybrid library CCmax.
Experiment [58] addresses T56, 4H355-AA.
T56 chain: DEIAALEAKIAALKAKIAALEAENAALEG
Briefly: two-hybrid library CCmax.

Sequence of 4H_GCN4 (chain, as listed by the source): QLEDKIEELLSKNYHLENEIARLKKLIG

DKIQQLKQENQELKQEIQELEWKNQELKQ [4H2760-bN]: the interaction score was -1.77 in experiment [1]; 0.11 in [2]; 0.472 in experiment [3]; -0.578 in experiment [4]; -1.61 in experiment [5]; -0.234 in experiment [6]. Also, the interaction score in [7] is -0.482; in [8], -0.517; in experiment [9], -1.63; in [10], 1.03; in [11], 0.638; in experiment [12], -0.45. In experiment [13], this molecule yielded an interaction score of -0.107.

As to DEIQELEKKIEELKREIWELKKENQELER [4H331-bH], the interaction score is -1.11 in [14]; -0.299 in experiment [15]; -1.1 in [16]; 0.445 in experiment [17]; -0.0612 in [18]; -0.721 in experiment [19]. Besides, the interaction score in experiment [20] is 0.733; in [21], -1.97; in [22], 0.334; in [23] it was -1.42; in experiment [24], -0.0604; in experiment [25], -0.325. Also, the interaction score in [26] was 1.6; in experiment [27] it was -1.89; in [28], 0.837; in experiment [29] it was 0.467; in experiment [30] it was -0.0752; in [31] it was 0.213. In addition, the interaction score in [32] was 0.193; in experiment [33], 1.45; in [34], -0.0604; in [35] it was -0.344; in [36] it was 0.891; in experiment [37], -1.25. Also, the interaction score in [38] was -0.531.

Take DKIAQLKQEIAELEQKNAELKWKNAQLKQ [O4-bA]: the interaction score in experiment [39] is -0.232; in experiment [40], -1.68; in experiment [41], 1.17; in experiment [42], -0.0834; in experiment [43] it was 0.158; in [44] it was 0.351.

Consider DEIAALEAKIAALKAKIAALEAENAALEG [4H355-AA], for which the interaction score in experiment [45] is 0.393; in experiment [46], -1.96; in experiment [47], -0.342; in experiment [48], -0.775; in experiment [49], 0.086; in experiment [50], -0.88. Besides, the interaction score in experiment [51] was -1.7; in [52] it was -1.7; in experiment [53] it was -2.32; in experiment [54], 1.08; in experiment [55], -1.56; in [56], -0.0681. The interaction score in experiment [57] is -2.04; in [58] it was 0.592.
